Results published in patent publication US20260000759A1 (Genentech, published 2026).

Molecular target: T1, human oncostatin M receptor beta (OSMRβ) (human, UniProt Q99650 28-979)
T1 sequence (looked up): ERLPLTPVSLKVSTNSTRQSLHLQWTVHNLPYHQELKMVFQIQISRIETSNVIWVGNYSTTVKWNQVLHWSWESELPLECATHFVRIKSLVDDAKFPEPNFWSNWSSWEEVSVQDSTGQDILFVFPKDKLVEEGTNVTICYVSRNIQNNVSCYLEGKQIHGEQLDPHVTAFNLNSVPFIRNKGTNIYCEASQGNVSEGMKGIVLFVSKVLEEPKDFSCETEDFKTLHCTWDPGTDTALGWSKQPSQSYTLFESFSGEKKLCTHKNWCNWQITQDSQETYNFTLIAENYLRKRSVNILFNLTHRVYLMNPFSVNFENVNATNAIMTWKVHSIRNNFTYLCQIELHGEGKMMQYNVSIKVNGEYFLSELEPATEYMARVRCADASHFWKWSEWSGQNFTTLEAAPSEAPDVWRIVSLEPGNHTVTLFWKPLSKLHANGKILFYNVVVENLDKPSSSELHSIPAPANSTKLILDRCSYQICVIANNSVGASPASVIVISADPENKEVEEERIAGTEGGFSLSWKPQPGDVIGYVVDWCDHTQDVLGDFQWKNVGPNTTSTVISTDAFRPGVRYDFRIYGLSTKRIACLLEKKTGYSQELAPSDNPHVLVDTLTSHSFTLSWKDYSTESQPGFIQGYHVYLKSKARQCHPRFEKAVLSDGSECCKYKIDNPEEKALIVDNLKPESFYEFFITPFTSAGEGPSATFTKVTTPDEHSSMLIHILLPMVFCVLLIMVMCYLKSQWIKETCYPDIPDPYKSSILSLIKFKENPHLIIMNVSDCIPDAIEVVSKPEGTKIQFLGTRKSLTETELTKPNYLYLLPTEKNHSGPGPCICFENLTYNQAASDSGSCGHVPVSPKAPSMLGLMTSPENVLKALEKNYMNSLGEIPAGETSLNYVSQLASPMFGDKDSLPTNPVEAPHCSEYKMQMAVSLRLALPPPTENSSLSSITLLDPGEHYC
Assay: cell-based or functional assay

Mean of IC50, inhibition of OSM-induced STAT3 phosphorylation (pSTAT3 Tyr705, MSD); IPF-derived lung fibroblasts, [OSM] 1 ng/mL: 12.4 ng/mL | Mean of IC50, inhibition of OSM-induced STAT3 phosphorylation (pSTAT3 Tyr705, MSD); IPF-derived lung fibroblasts, [OSM] 10 ng/mL: 56.1 ng/mL | Mean of IC50, inhibition of OSM-induced STAT3 phosphorylation (pSTAT3 Tyr705, MSD); normal keratinocytes, [OSM] 10 ng/mL: 4.95 ng/mL | Mean of IC50, inhibition of OSM-induced STAT3 phosphorylation (pSTAT3 Tyr705, MSD); normal keratinocytes, [OSM] 100 ng/mL: 45 ng/mL | Mean of IC50, inhibition of OSM-induced STAT3 phosphorylation (pSTAT3 Tyr705, MSD); normal lung fibroblasts, [OSM] 1 ng/mL: 13 ng/mL | Mean of IC50, inhibition of OSM-induced STAT3 phosphorylation (pSTAT3 Tyr705, MSD); normal lung fibroblasts, [OSM] 10 ng/mL: 88.2 ng/mL
B1: vixarelimab (antibody, human IgG4 S228P, lambda, N297Q, V domains shown)
VH: QVQLVQSGAEVKKPGASVKVSCKASGYTFTSYEINWVRQATGQGLEWMGWMNPNSGYTGYAQKFQGRVTMTRDTSISTAYMEMSSLRSEDTAVYYCARDIVAANTDYYFYYGMDVWGQGTTVTVSS
VL: QSVLTQPPSASGTPGQRVTISCSGSNSNIGSNTVNWYHQLPGTAPKLLIYNINKRPSGVPDRFSGSKSGSSASLAISGLQSEDEADYYCSTWDDSLDGVVFGGGTKLTVLG
